Data reported in PMC4029989, “Selection of a Novel DNA Aptamer for Assay of Intracellular Interferon-Gamma”.

Tests used:
[1] = biological target: Bovine serum albumin (BSA) (Bos taurus, UniProt P02769 25-607); test: flow cytometry bead binding; bound albumin to a large degree; PBS binding buffer (SELEX with 0.1 mg/mL salmon sperm DNA and 1 mg/mL BSA, 37 °C); Kd assay on beads in binding buffer, room temperature, 30 min; pH not stated; conditions: protein: commercial; label: FITC
Interferon-gamma (IFN-γ) [2] = biological target: T1, Interferon-gamma (IFN-γ) (Homo sapiens, UniProt P01579 24-161); test: flow cytometry bead binding; PBS binding buffer (SELEX with 0.1 mg/mL salmon sperm DNA and 1 mg/mL BSA, 37 °C); Kd assay on beads in binding buffer, room temperature, 30 min; pH not stated; conditions: protein: commercial; chain copies: 2; label: FITC
T1 sequence (P01579 24-161): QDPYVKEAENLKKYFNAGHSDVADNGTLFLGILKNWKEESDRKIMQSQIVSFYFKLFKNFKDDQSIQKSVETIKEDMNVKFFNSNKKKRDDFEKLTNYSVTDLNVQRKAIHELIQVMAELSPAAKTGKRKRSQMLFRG

[3] = biological target: Interferon-gamma, intracellular (Homo sapiens, UniProt P01579 24-161); test: flow cytometry of fixed permeabilized cells; 0.05 pM aptamer; no correlation with stimulated cells; PBS binding buffer (SELEX with 0.1 mg/mL salmon sperm DNA and 1 mg/mL BSA, 37 °C); Kd assay on beads in binding buffer, room temperature, 30 min; pH not stated; conditions: protein: native; chain copies: 2
Sequence of Interferon-gamma, intracellular (P01579 24-161): as above

Interferon-gamma (IFN-γ) [4] = biological target: T1, Interferon-gamma (IFN-γ); test: flow cytometry bead binding; binding buffer (PBS), room temperature, blank-bead signal subtracted; PBS binding buffer (SELEX with 0.1 mg/mL salmon sperm DNA and 1 mg/mL BSA, 37 °C); Kd assay on beads in binding buffer, room temperature, 30 min; pH not stated; conditions: protein: commercial; chain copies: 2; label: FITC

Sequence of Bovine serum albumin (BSA) (P02769 25-607): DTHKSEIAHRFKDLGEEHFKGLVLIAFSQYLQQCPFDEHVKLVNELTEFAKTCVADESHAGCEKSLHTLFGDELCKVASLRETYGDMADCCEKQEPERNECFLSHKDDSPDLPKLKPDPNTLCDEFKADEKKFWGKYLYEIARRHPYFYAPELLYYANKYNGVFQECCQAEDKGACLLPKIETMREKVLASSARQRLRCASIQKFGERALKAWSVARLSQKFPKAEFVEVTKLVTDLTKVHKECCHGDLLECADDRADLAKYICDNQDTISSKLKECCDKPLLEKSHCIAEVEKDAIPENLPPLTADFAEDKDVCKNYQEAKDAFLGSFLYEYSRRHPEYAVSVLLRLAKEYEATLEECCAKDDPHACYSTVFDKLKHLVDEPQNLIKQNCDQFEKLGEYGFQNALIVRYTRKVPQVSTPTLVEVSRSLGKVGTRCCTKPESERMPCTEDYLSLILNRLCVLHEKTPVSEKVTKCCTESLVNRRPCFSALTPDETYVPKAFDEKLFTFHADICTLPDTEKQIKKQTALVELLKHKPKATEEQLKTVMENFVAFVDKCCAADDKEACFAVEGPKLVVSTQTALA

GGGGTTGGTTGTGTTGGGTGTTGTGT (ssDNA) [T2]: binds [1]; binds (Interferon-gamma (IFN-γ) [2]).

B1: A2 (ssDNA)
DNA: TGCCCGTGTCCCGAGGAGGTGCCCTATTTTGCTTGATTATCTCTAAGGGATTTGGGCGG
B1: no binding [3].

B2: B1-4 (ssDNA)
DNA: CCGCCCAAATCCCTAAGAGAAGACTGTAATGACATCAAACCAGACACACTACACACGCA
Binder B2 has a Kd (Interferon-gamma (IFN-γ) [4]) of 74.5 nM.
